# Assay results from US10556014B2, “Compounds containing a vascular disrupting agent” (Incanthera Ltd, priority 2007, dated 2020).
# Where a SMILES comes first, the peptide text is derived from it. [ ]: non-standard residue; d: D form. The star is where a group is joined. NH(Colchicin-10-yl) = COc1cc2c(c(OC)c1OC)-c1ccc(N*)c(=O)cc1[C@@H](NC(C)=O)CC2; FITC = O=C1OC2(c3ccc(O)cc3Oc3cc(O)ccc32)c2ccc(NC(=S)*)cc21; hPhe = N[C@@H](CCc1ccccc1)C(=O)O; Cit = NC(=O)NCCC[C@H](N)C(=O)O; βAla = NCCC(=O)O
# Key:
# [1] = Ex vivo stability in normal mouse liver homogenate (LC/MS/MS); format: in vitro ADME
# Text: (§1) [drawing 10] • a) Prodrug-1 has been screened using normal mouse plasma, normal mouse liver homogenate and experimental human tumour model homogenate (HT1080 xenograft; known to express majority of MMPs) ex vivo. Prodrug cleavage and metabolism were detected using LC/MS/MS. • a. Prodrug-1 was stable in plasma and liver, supporting systemic stability of these therapeutics (FIG. 1). • b. […] Plasma, tissues and tumours were collected at regular intervals post-dosing. Levels of prodrug and VDA2 were assessed by LC/MS/MS. • a. […] (FIG. 2) • d. […] VDA2 levels were detected at high levels in tumour tissue following prodrug-1 administration (FIG. 3) • f.
# (§2) [drawing 11] • d) Compound 1 was modified in order to change the MMP-targeting of the compound from being pan-MMP to MT-MMP selective (Prodrug-2) • a. Arginine was incorporated in place of the Glutamic acid at the P4 position • b. […] Prodrug-2 cleavage and metabolism were detected using LC/MS/MS. • a. […] Prodrug-2 is not cleaved by recombinant MMP-9, in contrast to prodrug-1 • d. […] Plasma, tissues and tumours were collected at regular intervals post-dosing. Levels of prodrug-2 and VDA2 were assessed by LC/MS/MS. • a. […] Liver was representative of all normal tissues analysed. (FIG. 5) • d. […] Levels of VDA2 in tumour were 10 times higher than that detected in normal tissues following administration of prodrug-2 (FIG. 6) • g. […]
# [2] = tested on: HT1080 xenograft tumour homogenate; test: Ex vivo metabolism in experimental human tumour model homogenate (HT1080 xenograft); format: in vitro ADME
# Text: as §1, §2
# [3] = Ex vivo stability in normal mouse plasma (LC/MS/MS); format: in vitro ADME
# Text: as §1, §2
# [4] = Levels of prodrug and VDA2 in plasma, tissues and tumour after intraperitoneal dosing of mice bearing subcutaneous HT1080 tumour; format: in vivo; conditions: HT1080 tumour bearing mice; for prodrug tissue distribution: all tissues analysed
# Text: as §1
# [drawing 11] • d) Compound 1 was modified in order to change the MMP-targeting of the compound from being pan-MMP to MT-MMP selective (Prodrug-2) • a. Arginine was incorporated in place of the Glutamic acid at the P4 position • b. […] Prodrug-2 cleavage and metabolism were detected using LC/MS/MS. • a. […] Prodrug-2 is not cleaved by recombinant MMP-9, in contrast to prodrug-1 • d. […] Plasma, tissues and tumours were collected at regular intervals post-dosing. Levels of prodrug-2 and VDA2 were assessed by LC/MS/MS. • a. […] Liver was representative of all normal tissues analysed. (FIG. 5) • d. VDA2 was undetectable in plasma following administration of prodrug-2 (FIG. 6) • e. […] Levels of VDA2 in tumour were 10 times higher than that detected in normal tissues following administration of prodrug-2 (FIG. 6) • g. High levels of prodrug-2 and VDA2 were still detectable in tumour 48 hours post administration.
SMILES,stability in liver homogenate [1],metabolism in tumour homogenate ([2]; HT1080 xenograft homogenate (expresses majority of MMPs)),stability in plasma [3],VDA2 levels in normal tissues following prodrug administration [4],VDA2 levels in tumour following prodrug administration [4],prodrug levels in the tumour compared with other tissues [4],VDA2 level in normal tissues after 24 hours post-dosing with prodrug ([4]; 24 hours),VDA2 level in tumour after 24 hours post-dosing with prodrug ([4]; 24 hours),prodrug level after 24 hours post-dosing ([4]; 24 hours),prodrug tissue distribution [4],"metabolism in tumour homogenate expressing high MT-MMP levels ([2]; HT1080 homogenate, relative to homogenate expressing low MT-MMP levels (MCF7))",VDA2 level in plasma following prodrug administration [4],levels of VDA2 in tumour relative to normal tissues following prodrug administration [4],VDA2 level in tumour 48 hours post prodrug administration ([4]; 48 hours),prodrug level in tumour 48 hours post administration ([4]; 48 hours)
COc1cc2c(c(OC)c1OC)-c1ccc(NC(=O)[C@H](Cc3ccc(O)cc3)NC(=O)[C@H](CC(C)C)NC(=O)[C@H](Cc3ccc(O)cc3)NC(=O)[C@H](CCc3ccccc3)NC(=O)CNC(=O)[C@H](CCCNC(N)=O)NC(=O)[C@@H]3CCCN3C(=O)[C@H](CCC(=O)O)NC(=O)CCNC(=S)Nc3ccc4c(c3)C(=O)OC43c4ccc(O)cc4Oc4cc(O)ccc43)c(=O)cc1[C@@H](NC(C)=O)CC2 [Prodrug-1] ({FITC-βAla}-EP[Cit]G[hPhe]YLY-{NH(Colchicin-10-yl)}),stable,metabolised,stable,detectable at low levels,high levels,Highest,undetectable,still detectable at high levels,not detectable,accumulated and was detected in all tissues analysed,,,,,
COc1cc2c(c(OC)c1OC)-c1ccc(NC(=O)[C@H](Cc3ccc(O)cc3)NC(=O)[C@H](CC(C)C)NC(=O)[C@H](Cc3ccc(O)cc3)NC(=O)[C@H](CCc3ccccc3)NC(=O)CNC(=O)[C@H](CCCNC(N)=O)NC(=O)[C@H](CO)NC(=O)[C@H](CCCNC(=N)N)NC(=O)CCNC(=S)Nc3ccc4c(c3)C(=O)OC43c4ccc(O)cc4Oc4cc(O)ccc43)c(=O)cc1[C@@H](NC(C)=O)CC2 [Prodrug-2] ({FITC-βAla}-RS[Cit]G[hPhe]YLY-{NH(Colchicin-10-yl)}),remained stable,,remained intact,,High concentrations,Highest,,,,accumulated and was detected in all tissues analysed,metabolised rapidly,undetectable,10 times,High levels,High levels
